We go through three molecules from patent US20210380714A1 (Amgen, published 2021).

Experiment [1] concerns the target T1, Mouse MSLN (Mus musculus, UniProt Q61468).
T1 construct: also called murine mesothelin
T1 sequence (target, looked up): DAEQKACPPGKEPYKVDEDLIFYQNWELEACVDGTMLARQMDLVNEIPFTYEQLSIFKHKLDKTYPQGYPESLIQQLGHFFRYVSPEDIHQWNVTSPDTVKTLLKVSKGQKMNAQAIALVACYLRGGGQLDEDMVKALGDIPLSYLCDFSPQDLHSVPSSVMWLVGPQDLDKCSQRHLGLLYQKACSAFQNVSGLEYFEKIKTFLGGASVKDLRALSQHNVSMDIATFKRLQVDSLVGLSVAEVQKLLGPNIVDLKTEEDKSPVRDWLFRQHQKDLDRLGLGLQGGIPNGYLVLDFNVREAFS
The experiment is described as follows: FACS on 293T cells transiently expressing the orthologue.
Experimental: (§1) FACs assays were performed by incubating hybridoma supernatants with 10,000 to 25,000 cells in PBS/2% Fetal bovine serum/2 mM Calcium Chloride at 4° C. for one hour followed by two washes with PBS/2% Fetal bovine serum/2 mM Calcium Chloride. Cells were then treated with florochrome-labeled secondary antibodies at 4° C. followed by one wash. The cells were resuspended in 50 μl of PBS/2% FBS and antibody binding was analyzed using a FACSCalibur™ instrument.

Experiment [2] concerns the target T2, Rat MSLN (Rattus norvegicus, UniProt Q9ERA7).
T2 construct: also called rat mesothelin
T2 sequence (target, looked up): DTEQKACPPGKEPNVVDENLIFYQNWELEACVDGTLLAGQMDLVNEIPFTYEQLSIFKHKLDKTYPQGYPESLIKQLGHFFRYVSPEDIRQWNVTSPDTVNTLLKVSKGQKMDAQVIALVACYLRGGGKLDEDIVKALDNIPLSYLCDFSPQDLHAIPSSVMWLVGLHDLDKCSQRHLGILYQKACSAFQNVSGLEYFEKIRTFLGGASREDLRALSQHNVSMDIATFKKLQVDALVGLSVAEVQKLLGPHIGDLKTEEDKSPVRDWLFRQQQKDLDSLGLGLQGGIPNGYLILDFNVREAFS
Described as above.
Experimental: as §1

Where a chain is given by its changes, count along the chain named.

B1: 158.3 (antibody, V domains shown)
VH: QVQLQESGPGLVKPSETLSLTCTVSGGSIISHYWSWIRQPPGKGLEWIGYIYYSGSTNYNPSLKSRVTISVDTSKNQFSLKLTSVTAADTAVYYCARDGWSAFDYWGQGTLVTVSS
VL: DIQMTQSPSSLSASVGDRVTITCRASQGIRNALGWYQQKPGKAPKRLIYAASSLQSGVPSRFSGSGSGTEFTLTISSLQPEDFATYYCLQHNSYPRTFGQGTKVEIRR
notes: also called 1.58.3 g1; 1.58.3 g2
Take B1: the binding result in experiment [1] was “no binding”.

B2: 151 (antibody, V domains shown)
VH: B1 VH with I30S, H32Y, T83S, D98V, G99D, W100Y, S101K, Y105I, L111M
VL: DIQMTQSPSSLSASVGDRVTITCRASQGIRNDLHWYQQKPGKAPKRLIYAASSLQSGVPSRFSGSGSGTEFTLTISSLQPEDFATYYCLQHYSYPWTFGQGTKVEIK
notes: also called Ab1.51
For B2, in experiment [1], the binding result is listed as “no binding”.

B3: Ab237 (Hu-anti-huMesothelin-2.37-IgG1) (antibody, V domains shown)
VH: QVQLQESGPGLVKPSQTLSLTCTVSGGSINNNNYYWTWIRQHPGKGLEWIGYIYYSGSTFYNPSLKSRVTISVDTSKTQFSLKLSSVTAADTAVYYCAREDTMTGLDVWGQGTTVTVSS
VL: DIQMTQSPSSLSASVGDRVTITCRASQSINNYLNWYQQKPGKAPTLLIYAASSLQSGVPSRFSGSRSGTDFTLTISSLQPEDFAAYFCQQTYSNPTFGQGTKVEVK
notes: Fully human antibody from XenoMouse; Only the variable domains are tied to Ab237
With B3, the binding result in experiment [1] and in experiment [2] was “binds” in each case.
